Measurements taken from the domain aggregation screens of Martell et al. (2025).

Assay: soluble fraction after stress (log2 fold change); higher = more stays soluble; pooled small domains, quantitative proteomics
Conditions: stress: 75 degC
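Further: 20 min heating vs room temperature control held 20 min.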

Sequence	soluble fraction (log2)
HMSLMHEESLKNIRRFINSLPESLRTAFTLREQDGLSYEEIGVITETPIGTVRSRIFRAREAILEHIKKEL	-2.39
HMSLMLYVEDVDTAFKKAIELGATEIRPVHDQFYGDRAGTLQDPFGHIWIIGTHKEDVSDEELNNRIGNI	0.104
HMSLPNNLIEQLQDPEPKARRRAVRRLAATRDPSAIPLLRNVYLQDGDDRVRDAAEAALVQFRAMQHN	-0.112
HMSLPTYVQISEAIARRITAGQWLDGERLPPERTMAAEFGVAVGTLRKALSRLQDQKLLRRLQGSGNYINI	-1.67
HMSLREKNKARTRTAILNAARDLAKQGQWDAITTRQIADAAGVSYQTLYNYYPSKASILVEMLL	-2.03
HMSLSDDIAQTLRQLGFDRDVSETLANDVLPAMPTRQDVIDLLGTLGIEKHVAADFANFVVLN	-0.964
HMSLSEYLSAPVLEGQRNHALFSAVMQAREQGWDEWQIRTTIGAKAEADGLRHAEIAATIRSAMSREITP	-0.314
HMSLSIKINHESVGLRLDQFLQEHYYKQQSRSYVQHAIKEGYILVNGQSVKNGYMLKLDDLIELEAI	-4.5
HMSLSNMIGKNIQWTHVTKTKDAEGNPKTNSETFAGNVRGVKVLNGKPMVVAQDAKGKLHEVEVSEIEAIA	0.0953
HMSLTEDELFHALTIYANREGINIGATELKYLLTHYARNLGKLIELINQVSQAATMQKKPITIPLIKHS	-0.411
HMSLTGFYNLTFKQADRLSVIDEAGEEVYKQAIAMGSTTKTIDLSALNAGVYFIRIYNGEVIAQEKIVLN	-0.933
HMSLTYTGKFILNHNNIDQSSFNINIYLVNKQTIIQITKPFYGNVLNIKFNEENDLIISPKQFS	-0.369
HMSMDPYTVLGVNKSSTDSQIKNAYKNLAKQHHPDRGGNEAKFKEISTAYEQIKTAEKRQQYDMSQQF	0.604
HMSMFAQQLKDLRKKIPGLTQTDMAKKLGIAKTTYASYEQGKRTPDIETQNKIADFFNVSLDYLHG	-0.302
HMSMFSEILRTLRKAKGLTQRELAGHLGVTQQMVAKWEKGQSTPGPDQLTRMAELLEVSTDTLLGR	-0.366
HMSMNSWFVEKERDNTRIDKFLNEQMADISRSYIQKLIKDDLVTVDLRPVKANYKVKEGDRVEVTLPEPV	0.000708
HMSMPTITLQHYKRGSHYYASIIETFRDPVTRKNSSRTLEALGDISEKMKEDPNYLQSLKDRVKALRSD	-0.899
HMSMSLQFLSRRIRLQREKRGLKQHDIAHALQISPQAVSKWERGENAPDIALLRPLAGLLGVSIDWLMGGD	-3.27
HMSNEEEIEGLVSKVLDNNPEIVERIRSGEDKLISYLVGEVMKQSSSSLNPGIVKEIIVNKTI	0.091
HMSNEITVPDLSGMSLEELETILSDRSLSYEIIDSIYNSTAKKGTVSSQDPLPDAKVKSGRTIYITVVSKL	-1.85
HMSNENIDQDELQAIIQKVLASNQDAVAKYKAGKTAVIGFLIGQVMRQLNKKIDVALAKKTLLVFLEK	-1.42
HMSNETKSAILNFAEKHHDFNIDDLFESLSKSMDINRSSLLWHLFKLVNSNVLIRTGRGMYAKV	-2.62
HMSNEVSYSDFVRSVESDEVNAVTLDGEQIRFVGNDGQTYSVIKPADAQITQLLIDNNVTVRAEQQ	0.123
HMSNEYLMPNLIGMSWDEAKSKYSQYMTLVPEQEWSEVTKDQIFDQEYPEGRKVKIGTEVTVKVSMGI	-0.654
HMSNFGALLRMRRLEAGLSYRGLAEQSGLARATLVNLEQGLTKPSPLTMRRLASVKALRLTEL	-3.17
HMSNFGERLRALRQDRQMTLQQASKVTGVAQSTLSKMENNQLSPTFNLMQKLAIGLGIDMPQLFAPVK	-0.642

Sequence	soluble fraction (log2)
HMSNGEWQQGSDGRWWYKFSDGTYPKNKVETIGGKKYGFDSEGWMLANTTKEFSGTTYSFGADGVATS	0.223
HMSNHYETLGVEQTASVDEIKKAYRRLSLQYHPDRNTTSDAVGKFQKINDAHEILSDKQSRTEYDMQLK	0.0273
HMSNIQLAANLQRLRKDHHFTQTQFSKKLNISRQAYSNYETGKRIPDLDIIIRIANIYHISLENLL	-0.305
HMSNKYYETILDWFKSQIMSGELKEGDTIPSERELATRFGVSRVPVREALRILEYIGIVSNTADGMTVQKV	-1.72
HMSNLKKRRLEKNLTLDDVGKLVGVSAATISRWESGDIENMRSDKIVKLANALEISPAVILGW	-0.0179
HMSNLLKNILDVLEKEGPLKARKIALLLDSTRTTITHTTINSELYKALDLEGLTKNEQNIWSYVT	0.145
HMSNLVEVPAVIGRMKEDAITMLISAGLEPAVTYDEYPLVKENLVADQSVAPGQKVEKGSFVTITVSRS	-0.0726
HMSNMESLIGREATVIEMIPAEDVGRVKIDGDEWQAVLAREDDNEPRRDIQVGEKVIIVSYDSIILTVKTK	0.0742
HMSNNENSILEKLNSFSGKKIKVSHTIGSLAARLDEYPKIKMWLYKRIRENSINEQAYKYLIFIIERKVR	-1.34
HMSNPADDVVDLLRQLRLPHMRAAAPELLATAKAQRWDPAEAIRALLTEELAGRQASSINARRK	-0.477
HMSNPPIRIGKKALHELLTTWLSLLSRDGVAYLVVQKNLGADSLTAWLRDQGFPSEKIASKKGFRIIEVH	-0.315
HMSNRDNPVVLDFKKVKSTEQLDNILEEYIRENFEGYTVKGRMFSSDEGKFIIALALKDDDGKRALVYFDV	-1.04
HMSNRIDKIKLNHWLNIRKTSLDVLNNLLSKHLNHKINFENLENLDEQAIEKISEVLSIPKNKLLINDDVP	-0.219
HMSNTVEDLIDDIGTVTKDSKDKIDAARKAYDGLTEDQKKLVPDSVLKTLTDAEAAYAKLTK	0.567
HMSNWYGTVVKIQPRPNAQAADTAVVKLLDGSEHRFPVWADHLTTIEVGSRLKKLSGGWDPVLMDPEETF	-0.669
HMSNWYKNNETDQIWWKDTPDSVGEWLFSFDKKQVFNMFADYPHNLTPEQKKIFDEENPEWSDRP	-0.351
HMSNYPYLLRTYEGKLAVFTDDLVQPDLVFDVYVRTLPELDQQQLSRGIRVKTYDELTSMIEDYI	-2.22
HMSPAVEDYLEQIHNLIAQKGYARVVDIAGNLKISQASVTNMIQRMDADGLVVYERYRGVVLTETGRK	-1.28
HMSPDLNEVEEKVFRALNGVESMHVNKLGIELNLPVSELFFTLLELEMKNVVKALPGGMYKL	-2.26
HMSPFYILDEVEAALDDTNLGRLLEIYEELRENSQLLVITHQKRTMEVGDALYGVTMRGDGVSAVISQRLR	0.306
HMSPKYLELVRWINTQIQEKKLTAGQKMYSENELKEMFGVSRQTVRHAISVLEGEGMIRRVRGSGTYINDN	-2.42
HMSPLALLTPRELDILRAMTAGASNKEIARQFAIAETTVKIHVQHILRKLDVTTRVHAAVMASESGL	-3.05
HMSPPALAVQRDGSNVQISWPGAEEGWRLESSAEPSGAAWDLIAQNPTPVGGRWTVSLTEPTGRRFYRLVK	-0.0804
HMSPSLVEAMRLRMYEMGLNQAKLSELLGVSPSRVSDYLTGRSEPTLKVARDISRKLNIDASIVLG	-1.68
HMSPSQFRSKSLLVEINFASRQMDGEILQGDYAGKRLSELTEAEVQELTAWLKQSDRESFVLLQAYLLRSG	-2.46
HMSPSSPNQILGQYPKTKNDIILSSGRYGPYLKYNKKNYSLGNNISVEKLSLEEAVKIIDLKDKK	-0.291

Sequence	soluble fraction (log2)
HMSPTDKATVNVYALNVRTGPGTNYKVLGSVIKGTELQVLGSSGKWLKVKYGNREAYVAGWLVK	-2.85
HMSPTEQEKIGLFIKKLREEKNLTQEAFASLLKTSQSAVARIESGNQNITIEQLMKIGEVLNHNIVSI	-0.212
HMSQDPLETYYPQWSAAVKQSNPDAEIIRDTDGKYYVEGMTKNRVAVIYENPHLVRLVNATTNVHVE	0.0377
HMSQDTLIGRVGVIVIGQARTGSPAQVRVKDGFGQTHYVMAEPDSEGVLKQGEAVLLVSLEGNTFKAILNP	-2.41
HMSQDVLLKRSGDQIEVKITEVGEDYLKYKKKGFENGPDFKINTSDVFMVTFANGEKMMFEES	-0.033
HMSQEAKLAMPVTDLRLSARTLNALELANIRTVRDLVSHTEEQLLELRNFGETALAEVKEKLAALGLRLGM	0.0588
HMSQESIMPNLVGSTEDEAKAIAVEYGFQLNVISRVNNSQYPAGVIIDQNVDEGVRIKAGYPVGVTIS	-0.237
HMSQIAENNQKYVGTIQKVLVEGTSKNNDDMLTGRTDSNKVVIFEGDKKLIGNMVELKIVSEHMWYLKGEL	-0.0812
HMSQISKLWRPSEDVTEILTRSGMDSEFLEGLIPEFIIYWSERADVLVSYNSKFIEHARLKWAQHSAEIKT	-4.48
HMSQLLHELLAHVLKDRIISGEWPAGSRIMSEHALQERYGVSRGTVRRALAQLVQEGLLVQRKGKGTFVTR	-2.59
HMSQLVTGVLRNLNDISEKIAAGKAVPEMLGRLENMQQMIANLKGNEGLIKSISILTRSAQDALR	-0.484
HMSQPLYWQIRRMVIDHDDANDVLQNTFIKAWSNIGSFRGDAKFSTWLYKIAVNESITFINKKKVQN	-0.44
HMSQPYFELAAADMEALRNALSTIREIESVVLSGKIFHVEVREDLDPGTMNKLAFERGITLTHLVKKKN	-2.89
HMSQRINLNSASIEDMQSLDISNEKIDSIIDYRNRYGNIHNIYELLKIPGITIGDIHSIRNAVTVEIPH	-0.104
HMSQSLSGWAAKDLEVKSGADASYRTVGRLPKGSKVSGKIINGYLHIEFDGSMRYVPVSGISKTE	-0.6
HMSQSYHLADRGQSLGTLDYQAVLVGLATGRLSPDTLSWQEGEAGWVALRQRPEFASGVSAVASL	0.404
HMSRAHTELEEKLLTMLEENDMTLPMRVISNIASRIEGIIIPEEKILEVLKKSYDRYREHQMD	-0.267
HMSRARSRQTSMLEAVAGLGPARRRALLKQFGGLQGVLRAGIEDLSRAPGIGPALAQAIFEHLHPGA	-0.482
HMSREQARRFYFDTWAKHRASQPLTDLEKIALTVMLLHPEYHSLLDKPDHYVDKDYSPEAGQTNPFLHM	-1.72
HMSRIDRKGLTSQIVNHLSKNPGKNFTLKQFFRNLKLNTHPLKMLAVDVLNKLLDTNFITRNEDGEFFLKA	0.154
HMSRLMIVTPDGRIMDDVPEFGEVRTTTDVNGRVLVLDRNNVVIGFEMTPREYRREFGRNPF	-1.12
HMSRQAPIGHRIRGRRKDIGMTQNALAKAAGISPSYLNLIEHNRRSIGGGLLMRIAAILDIHPHTL	-2.87
HMSRTLLVYVTGAVRQPGVYELPEGSRFFDAVKAAGDVLPYAVMEDINMAEPLSDGMKIHIPLDPEQ	-0.687
HMSRVFSPSELEIRHAQDVFQALEEAKRQGKGAVSLNGKMIDAPIVARAKLVLEAAAAIYGED	-0.379
